Laboratory results reported in the Immune Epitope Database (IEDB).

Columns and labels:
HLA-A*02:03 = experiment: IEDB peptide-MHC binding, purified MHC/direct/fluorescence; filed as Kd, often an IC50 or EC50 that approximates it; ≥ and ≤ were set here for values at or beyond the usual limits of such assays; conditions: source organism: Vibrio cholerae V52
HLA-A*02:11 = experiment: as above; conditions: source organism: Vibrio cholerae V52
HLA-A*02:12 = experiment: as above; conditions: source organism: Vibrio cholerae V52
HLA-A*02:16 = experiment: as above; conditions: source organism: Vibrio cholerae V52
HLA-A*03:01 = experiment: as above; conditions: source organism: Vibrio cholerae V52
HLA-A*23:01 = experiment: as above; conditions: source organism: Vibrio cholerae V52
HLA-A*29:02 = experiment: as above; conditions: source organism: Vibrio cholerae V52
HLA-A*68:02 = experiment: as above; conditions: source organism: Vibrio cholerae V52
HLA-B*15:17 = experiment: as above; conditions: source organism: Vibrio cholerae V52
HLA-B*39:01 = experiment: as above; conditions: source organism: Vibrio cholerae V52
HLA-A*01:01 = experiment: IEDB peptide-MHC binding, purified MHC/competitive/fluorescence; filed as Kd, often an IC50 or EC50 that approximates it; ≥ and ≤ were set here for values at or beyond the usual limits of such assays; conditions: source organism: Vibrio cholerae 2740-80
HLA-A*11:01 = experiment: as above; conditions: source organism: Vibrio cholerae 2740-80
HLA-A*30:01 = experiment: as above; conditions: source organism: Vibrio cholerae 2740-80
HLA-A*30:02 = experiment: as above; conditions: source organism: Vibrio cholerae 2740-80
HLA-A*66:01 = experiment: as above; conditions: source organism: Vibrio cholerae 2740-80
HLA-B*07:02 = experiment: as above; conditions: source organism: Vibrio cholerae 2740-80
HLA-B*08:01 = experiment: as above; conditions: source organism: Vibrio cholerae 2740-80
HLA-B*14:02 = experiment: as above; conditions: source organism: Vibrio cholerae 2740-80
HLA-B*27:05 = experiment: as above; conditions: source organism: Vibrio cholerae 2740-80
HLA-B*40:01 = experiment: as above; conditions: source organism: Vibrio cholerae 2740-80
HLA-B*44:02 = experiment: as above; conditions: source organism: Vibrio cholerae 2740-80
HLA-B*51:01 = experiment: as above; conditions: source organism: Vibrio cholerae 2740-80
HLA-B*53:01 = experiment: as above; conditions: source organism: Vibrio cholerae 2740-80
HLA-B*58:01 = experiment: as above; conditions: source organism: Vibrio cholerae 2740-80

MGMEQTMSV
Kd (HLA-A*02:03): ≥ 20 µM
Kd (HLA-A*02:11): ≥ 20 µM
Kd (HLA-A*02:12): ≥ 20 µM
Kd (HLA-A*02:16): ≥ 20 µM
Kd (HLA-A*03:01): ≥ 20 µM
Kd (HLA-A*23:01): ≥ 20 µM
Kd (HLA-A*29:02): ≥ 20 µM
Kd (HLA-A*68:02): ≤ 0.001 µM
Kd (HLA-B*15:17): ≥ 20 µM
Kd (HLA-B*39:01): ≥ 20 µM
Kd (HLA-A*01:01): ≥ 5 µM
Kd (HLA-A*11:01): ≥ 5 µM
Kd (HLA-A*30:01): ≥ 5 µM
Kd (HLA-A*30:02): ≥ 5 µM
Kd (HLA-A*66:01): ≥ 5 µM
Kd (HLA-B*07:02): ≥ 5 µM
Kd (HLA-B*08:01): ≥ 5 µM
Kd (HLA-B*14:02): ≥ 5 µM
Kd (HLA-B*27:05): ≥ 5 µM
Kd (HLA-B*40:01): ≥ 5 µM
Kd (HLA-B*44:02): ≥ 5 µM
Kd (HLA-B*51:01): ≥ 5 µM
Kd (HLA-B*53:01): ≥ 5 µM
Kd (HLA-B*58:01): ≥ 5 µM
